In patent US20200239579A1:
Where two headings read alike, the source gives them in different places.

Assays:
[1] = molecular target: human PD-L1 (full length, on cells) (human), Q9NZQ7; test: flow cytometry on SK-MES-1 cells, PE anti-human IgG secondary, MFI (PE)
[2] = molecular target: cynomolgus monkey PD-L1 (full length, on CHO cells) (cynomolgus monkey (Macaca fascicularis)), G7PSE7; test: flow cytometry on CHO cells transfected with cynomolgus PD-L1, PE anti-human IgG secondary, MFI (PE)
[3] = molecular target: human PD-L1 (full length, on cells) (human), Q9NZQ7; test: flow cytometry on PC3 cells, PE anti-human IgG secondary, MFI (PE)
[4] = molecular target: human PD-L1 (full length, on cells) (human), Q9NZQ7; test: flow cytometry on MDA-MB-231 cells, PE anti-human IgG secondary, MFI (PE)
[5] = molecular target: human PD-L1 (full length, on cells) (human), Q9NZQ7

Chain of human PD-L1 (full length, on cells) (human), Q9NZQ7 (Q9NZQ7 19-290 limits assumed): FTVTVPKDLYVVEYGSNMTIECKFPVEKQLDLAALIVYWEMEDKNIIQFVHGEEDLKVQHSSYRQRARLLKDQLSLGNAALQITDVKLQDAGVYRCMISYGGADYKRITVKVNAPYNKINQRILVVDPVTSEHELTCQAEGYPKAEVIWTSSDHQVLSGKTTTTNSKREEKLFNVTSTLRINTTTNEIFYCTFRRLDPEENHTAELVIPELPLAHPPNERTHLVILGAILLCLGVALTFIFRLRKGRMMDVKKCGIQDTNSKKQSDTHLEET
Chain of cynomolgus monkey PD-L1 (full length, on CHO cells) (cynomolgus monkey (Macaca fascicularis)), G7PSE7 (G7PSE7 entry or part of it): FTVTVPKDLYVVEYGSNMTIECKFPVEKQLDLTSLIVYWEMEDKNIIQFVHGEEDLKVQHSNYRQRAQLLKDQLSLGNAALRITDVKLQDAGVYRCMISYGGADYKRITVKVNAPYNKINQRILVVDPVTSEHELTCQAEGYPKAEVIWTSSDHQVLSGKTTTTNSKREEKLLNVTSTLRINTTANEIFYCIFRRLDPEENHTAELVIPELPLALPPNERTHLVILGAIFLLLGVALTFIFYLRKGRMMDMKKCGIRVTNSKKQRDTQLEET

EC50 (read off the curve) [1]: 0.2 mg/L | EC50 (read off the curve) [2]: 0.2 mg/L | EC50 (read off the curve) [3]: 0.05 mg/L | EC50 (read off the curve) [4]: 0.06 mg/L | EC50 (read off the curve) [5]: 0.1 mg/L
B1: bsIgG1-b12-FEAL×547-FEAR (bispecific antibody, not shown: another chain or arm of the molecule)
heavy: EVQLLEPGGGLVQPGGSLRLSCEASGSTFSTYAMSWVRQAPGKGLEWVSGFSGSGGFTFYADSVRGRFTISRDSSKNTLFLQMSSLRAEDTAVYYCAIPARGYNYGSFQHWGQGTLVTVSSASTKGPSVFPLAPSSKSTSGGTAALGCLVKDYFPEPVTVSWNSGALTSGVHTFPAVLQSSGLYSLSSVVTVPSSSLGTQTYICNVNHKPSNTKVDKRVEPKSCDKTHTCPPCPAPEFEGGPSVFLFPPKPKDTLMISRTPEVTCVVVAVSHEDPEVKFNWYVDGVEVHNAKTKPREEQYNSTYRVVSVLTVLHQDWLNGKEYKCKVSNKALPAPIEKTISKAKGQPREPQVYTLPPSREEMTKNQVSLTCLVKGFYPSDIAVEWESNGQPENNYKTTPPVLDSDGSFFLYSRLTVDKSRWQQGNVFSCSVMHEALHNHYTQKSLSLSPGK
light: SYVLTQPPSVSVAPGQTARITCGGNNIGSKSVHWYQQKPGQAPVLVVYDDNDRPSGLPERFSGSNSGNTATLTISRVEAGDEADYYCQVWDSSSDHVVFGGGTKLTVLGQPKAAPSVTLFPPSSEELQANKATLVCLISDFYPGAVTVAWKADSSPVKAGVETTTPSKQSNNKYAASSYLSLTPEQWKSHRSYSCQVTHEGSTVEKTVAPTECS
modifications: not checked
